pEC50: −log10 of the molar value. No end group written: not given here. PEG = not defined here
How the values were obtained:
[1] = HPLC analysis of plasma for circulating metabolites after large intravenous doses; assay type: in vivo; details: plasma of animals after large intravenous doses
[2] = molecular target: T1, GLP-1 receptor (RINm5f membranes) (Rattus norvegicus, UniProt P32301); experiment: Cyclase activation study (GLP-1 Cyclase), cAMP SPA immunoassay on RINm5f membranes; assay type: biochemical; details: read-out: GLP-1 Cyclase EC50, 20 minutes at 37° C., supernatant cAMP
T1 construct: host or cells: RINm5f cells (membranes/homogenate)
T1 sequence (P32301 22-463): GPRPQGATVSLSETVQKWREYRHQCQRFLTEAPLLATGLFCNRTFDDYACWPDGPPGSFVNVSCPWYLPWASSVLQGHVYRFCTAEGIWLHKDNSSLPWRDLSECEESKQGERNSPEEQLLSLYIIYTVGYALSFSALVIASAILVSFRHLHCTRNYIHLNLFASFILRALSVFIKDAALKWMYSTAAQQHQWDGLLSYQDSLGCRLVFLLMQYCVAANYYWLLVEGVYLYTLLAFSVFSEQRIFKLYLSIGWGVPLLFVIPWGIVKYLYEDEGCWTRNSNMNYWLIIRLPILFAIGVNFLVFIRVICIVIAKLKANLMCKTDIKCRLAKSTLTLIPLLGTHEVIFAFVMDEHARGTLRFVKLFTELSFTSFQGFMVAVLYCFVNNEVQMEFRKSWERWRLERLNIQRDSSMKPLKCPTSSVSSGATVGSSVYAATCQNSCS
Description: All other peptides were prepared using synthesis methods such as those described herein. All chemicals were of the highest commercial grade. The cAMP SPA immunoassay was purchased from Amersham. The radioligands were purchased from New England Nuclear (Boston, Mass.). RINm5f cells (American Type Tissue Collection, Rockville, Md.) were grown in DME/F12 medium containing 10% fetal bovine serum and 2 mM L-glutamine. […] Cells were grown to confluence then harvested and homogenized using on a Polytron homogenizer. Cell homogenates were stored frozen at −70° C. until used.
Membranes and peptides was combined in […] of assay buffer in 96 well filter-bottom plates (Millipore Corp., Bedford, Mass.). After 20 minutes incubation at 37° C., the assay was terminated by transfer of supernatant by filtration into a fresh 96 well plate using a Millipore vacuum manifold. Supernatant cAMP contents were quantitated by SPA immunoassay. Peptide samples were run in the assay as triplicate points at 7 dilutions over a concentration range of 10^−6M to 10^−12M to generate response curves. The biological activity of a particular sample was expressed as an EC50 value calculated as described above.

NIH:Swiss mice = experiment: Food intake (appetite suppression) in normal mice; assay type: in vivo; details: inhibition of food intake over 30 min, intraperitoneal injection, food deprived NIH:Swiss mice
Description: All mice (NIH:Swiss mice) were housed in a stable environment of 22 (±2)° C., 60 (±10) % humidity and a 12:12 light:dark cycle; with lights on at 0600. […] All experiments were conducted between the hours of 0700 and 0900.

Substance | plasma circulating metabolites (HPLC) [1] | pEC50 [2] | Appetite Suppression ED50 (NIH:Swiss mice)
GLP-1 [7-36]NH2 | subpeptide degradants |  | 
HGEGTFTSDLSRQMEEAVRLFIEWLRNGGPSSGAPPPK(PEG)-NH2 (reading uncertain; also: printed as HGEGTFTSDLSRQMEEAVRLFIEWLRNGGPSSGAPPPK(PEG)-NH2) [compound 229] |  | 7.22 | 14.50 µg/kg
HGEGTFTSDLSRQMEEEAVRLFIEWLRNGK(PEG)PSSGAPPPS-NH2 [224] (not fully specified; PEG linker; C-terminal amide) [compound 224] |  | 8.49 | weak
HGEGTFTSDLSRQMEEEAVRLFIEWLRNGK(PEG)PSSGAPPPS-NH2 [230] (not fully specified; PEG linker; C-terminal amide) [compound 230] |  | 6.80 | 
amylin: peptide hormone studied for comparison of plasma degradation (KCNTATCATQRLANFLVHSSNNFGAILSSTNVGSNTY; Islet amyloid polypeptide; UniProt P10997 34-70, looked up) | subpeptide degradants |  | 
